Results published in article PMC12102759 (2025).

B1: CBL peptide 540-555 (E3 ubiquitin-protein ligase CBL), 16-mer library wild type / YES SH3 (YES1 SH3 domain, residues 90-152) (parent complex)
chain 1: RDLPPPPPPDRPYSVG
chain 2: not shown

Variants of: B1
Assay: proteomic peptide phage display deep mutational scan (ProP-PD DMS): M13 P8 16-mer library selected against immobilised GST-tagged bait for four days (rounds), NGS of the eluted pools per day and pseudo-replica; bait immobilised on MaxiSorp plates (10 µg), library pre-cleared on GST, 2 h binding at 4 °C, five washes; one round per day, days 1-4; value from days 2 and 3

| Variant | screen value |
| --- | --- |
| chain 1 V15H | 0.00504 average fractional NGS count over selection days 2 and 3 (reads of this peptide / all reads for the bait, averaged over … |
| chain 1 V15N | 0.00181 average fractional NGS count over selection days 2 and 3 (reads of this peptide / all reads for the bait, averaged over … |
| chain 1 V15S | 0.00131 average fractional NGS count over selection days 2 and 3 (reads of this peptide / all reads for the bait, averaged over … |
| chain 1 P4L | 0.000253 average fractional NGS count over selection days 2 and 3 (reads of this peptide / all reads for the bait, averaged over … |
| chain 1 P4H | 8.18e-05 average fractional NGS count over selection days 2 and 3 (reads of this peptide / all reads for the bait, averaged over … |
| chain 1 P4M | 0.000259 average fractional NGS count over selection days 2 and 3 (reads of this peptide / all reads for the bait, averaged over … |
| chain 1 P4Q | 0.000154 average fractional NGS count over selection days 2 and 3 (reads of this peptide / all reads for the bait, averaged over … |
| chain 1 R11T | 0.00408 average fractional NGS count over selection days 2 and 3 (reads of this peptide / all reads for the bait, averaged over … |
| chain 1 R11F | 0.00146 average fractional NGS count over selection days 2 and 3 (reads of this peptide / all reads for the bait, averaged over … |
| chain 1 R11L | 0.00999 average fractional NGS count over selection days 2 and 3 (reads of this peptide / all reads for the bait, averaged over … |
| chain 1 R11D | 0.000209 average fractional NGS count over selection days 2 and 3 (reads of this peptide / all reads for the bait, averaged over … |
| chain 1 R11K | 0.000739 average fractional NGS count over selection days 2 and 3 (reads of this peptide / all reads for the bait, averaged over … |
| chain 1 R11V | 0.00622 average fractional NGS count over selection days 2 and 3 (reads of this peptide / all reads for the bait, averaged over … |
| chain 1 R11M | 0.00776 average fractional NGS count over selection days 2 and 3 (reads of this peptide / all reads for the bait, averaged over … |
| chain 1 R11A | 8.11e-05 average fractional NGS count over selection days 2 and 3 (reads of this peptide / all reads for the bait, averaged over … |
| chain 1 R11P | 0.00145 average fractional NGS count over selection days 2 and 3 (reads of this peptide / all reads for the bait, averaged over … |
| chain 1 P12Q | 0.0162 average fractional NGS count over selection days 2 and 3 (reads of this peptide / all reads for the bait, averaged over … |
| chain 1 P12H | 0.00204 average fractional NGS count over selection days 2 and 3 (reads of this peptide / all reads for the bait, averaged over … |
| chain 1 D10K | 0.00142 average fractional NGS count over selection days 2 and 3 (reads of this peptide / all reads for the bait, averaged over … |
| chain 1 D10A | 0.00828 average fractional NGS count over selection days 2 and 3 (reads of this peptide / all reads for the bait, averaged over … |
| chain 1 D10F | 0.000931 average fractional NGS count over selection days 2 and 3 (reads of this peptide / all reads for the bait, averaged over … |
| chain 1 D10V | 0.000894 average fractional NGS count over selection days 2 and 3 (reads of this peptide / all reads for the bait, averaged over … |
| chain 1 D10N | 0.000163 average fractional NGS count over selection days 2 and 3 (reads of this peptide / all reads for the bait, averaged over … |
| chain 1 D10E | 0.0012 average fractional NGS count over selection days 2 and 3 (reads of this peptide / all reads for the bait, averaged over … |
| chain 1 D10W | 0.00158 average fractional NGS count over selection days 2 and 3 (reads of this peptide / all reads for the bait, averaged over … |

| Variant | screen value |
| --- | --- |
| chain 1 D10P | 0.000173 average fractional NGS count over selection days 2 and 3 (reads of this peptide / all reads for the bait, averaged over … |
| chain 1 P6A | 0.0119 average fractional NGS count over selection days 2 and 3 (reads of this peptide / all reads for the bait, averaged over … |
| chain 1 P6V | 0.0162 average fractional NGS count over selection days 2 and 3 (reads of this peptide / all reads for the bait, averaged over … |
| chain 1 P6Y | 0.000164 average fractional NGS count over selection days 2 and 3 (reads of this peptide / all reads for the bait, averaged over … |
| chain 1 P6E | 0.000208 average fractional NGS count over selection days 2 and 3 (reads of this peptide / all reads for the bait, averaged over … |
| chain 1 Y13G | 8.54e-05 average fractional NGS count over selection days 2 and 3 (reads of this peptide / all reads for the bait, averaged over … |
| chain 1 Y13R | 0.000326 average fractional NGS count over selection days 2 and 3 (reads of this peptide / all reads for the bait, averaged over … |
| chain 1 L3E | 5.03e-05 average fractional NGS count over selection days 2 and 3 (reads of this peptide / all reads for the bait, averaged over … |
| chain 1 L3W | 0.000182 average fractional NGS count over selection days 2 and 3 (reads of this peptide / all reads for the bait, averaged over … |
| chain 1 L3M | 0.00032 average fractional NGS count over selection days 2 and 3 (reads of this peptide / all reads for the bait, averaged over … |
| chain 1 L3K | 0.000147 average fractional NGS count over selection days 2 and 3 (reads of this peptide / all reads for the bait, averaged over … |
| chain 1 L3F | 9.32e-05 average fractional NGS count over selection days 2 and 3 (reads of this peptide / all reads for the bait, averaged over … |
| chain 1 D2E | 0.0027 average fractional NGS count over selection days 2 and 3 (reads of this peptide / all reads for the bait, averaged over … |
| chain 1 D2I | 0.00123 average fractional NGS count over selection days 2 and 3 (reads of this peptide / all reads for the bait, averaged over … |
| chain 1 P9D | 0.00109 average fractional NGS count over selection days 2 and 3 (reads of this peptide / all reads for the bait, averaged over … |
| chain 1 P9Q | 0.00144 average fractional NGS count over selection days 2 and 3 (reads of this peptide / all reads for the bait, averaged over … |
| chain 1 P9R | 0.000295 average fractional NGS count over selection days 2 and 3 (reads of this peptide / all reads for the bait, averaged over … |
| chain 1 P9L | 0.00194 average fractional NGS count over selection days 2 and 3 (reads of this peptide / all reads for the bait, averaged over … |
| chain 1 P9A | 0.00224 average fractional NGS count over selection days 2 and 3 (reads of this peptide / all reads for the bait, averaged over … |
| chain 1 P9W | 0.00602 average fractional NGS count over selection days 2 and 3 (reads of this peptide / all reads for the bait, averaged over … |
| chain 1 R1P | 0.000732 average fractional NGS count over selection days 2 and 3 (reads of this peptide / all reads for the bait, averaged over … |
| chain 1 R1M | 0.00223 average fractional NGS count over selection days 2 and 3 (reads of this peptide / all reads for the bait, averaged over … |
| chain 1 R1Q | 7.8e-05 average fractional NGS count over selection days 2 and 3 (reads of this peptide / all reads for the bait, averaged over … |
| chain 1 P5I | 0.0162 average fractional NGS count over selection days 2 and 3 (reads of this peptide / all reads for the bait, averaged over … |
| chain 1 P5Q | 0.00016 average fractional NGS count over selection days 2 and 3 (reads of this peptide / all reads for the bait, averaged over … |

| Variant | screen value |
| --- | --- |
| chain 1 P5M | 0.00164 average fractional NGS count over selection days 2 and 3 (reads of this peptide / all reads for the bait, averaged over … |
| chain 1 P5L | 0.00149 average fractional NGS count over selection days 2 and 3 (reads of this peptide / all reads for the bait, averaged over … |
| chain 1 P5S | 0.00042 average fractional NGS count over selection days 2 and 3 (reads of this peptide / all reads for the bait, averaged over … |
| chain 1 P5H | 0.00214 average fractional NGS count over selection days 2 and 3 (reads of this peptide / all reads for the bait, averaged over … |
| chain 1 P5W | 0.000217 average fractional NGS count over selection days 2 and 3 (reads of this peptide / all reads for the bait, averaged over … |
| chain 1 S14M | 0.00137 average fractional NGS count over selection days 2 and 3 (reads of this peptide / all reads for the bait, averaged over … |
| chain 1 S14T | 0.0152 average fractional NGS count over selection days 2 and 3 (reads of this peptide / all reads for the bait, averaged over … |
| chain 1 S14D | 0.000862 average fractional NGS count over selection days 2 and 3 (reads of this peptide / all reads for the bait, averaged over … |
| chain 1 S14R | 6.61e-05 average fractional NGS count over selection days 2 and 3 (reads of this peptide / all reads for the bait, averaged over … |
| chain 1 S14H | 0.000385 average fractional NGS count over selection days 2 and 3 (reads of this peptide / all reads for the bait, averaged over … |
| chain 1 S14I | 0.00339 average fractional NGS count over selection days 2 and 3 (reads of this peptide / all reads for the bait, averaged over … |
| chain 1 S14A | 0.00883 average fractional NGS count over selection days 2 and 3 (reads of this peptide / all reads for the bait, averaged over … |
| chain 1 S14F | 0.0172 average fractional NGS count over selection days 2 and 3 (reads of this peptide / all reads for the bait, averaged over … |
| chain 1 P7Y | 0.000167 average fractional NGS count over selection days 2 and 3 (reads of this peptide / all reads for the bait, averaged over … |
| chain 1 P7G | 9.71e-05 average fractional NGS count over selection days 2 and 3 (reads of this peptide / all reads for the bait, averaged over … |
| chain 1 P7H | 0.00103 average fractional NGS count over selection days 2 and 3 (reads of this peptide / all reads for the bait, averaged over … |
| chain 1 P7A | 0.000371 average fractional NGS count over selection days 2 and 3 (reads of this peptide / all reads for the bait, averaged over … |
| chain 1 P7I | 0.000596 average fractional NGS count over selection days 2 and 3 (reads of this peptide / all reads for the bait, averaged over … |
| chain 1 P7M | 0.00246 average fractional NGS count over selection days 2 and 3 (reads of this peptide / all reads for the bait, averaged over … |
| chain 1 P8K | 0.000519 average fractional NGS count over selection days 2 and 3 (reads of this peptide / all reads for the bait, averaged over … |
| chain 1 P8W | 0.00267 average fractional NGS count over selection days 2 and 3 (reads of this peptide / all reads for the bait, averaged over … |
| chain 1 P8E | 0.00198 average fractional NGS count over selection days 2 and 3 (reads of this peptide / all reads for the bait, averaged over … |
| chain 1 P8L | 0.000348 average fractional NGS count over selection days 2 and 3 (reads of this peptide / all reads for the bait, averaged over … |
| chain 1 P8I | 0.000285 average fractional NGS count over selection days 2 and 3 (reads of this peptide / all reads for the bait, averaged over … |
| chain 1 P8N | 0.00013 average fractional NGS count over selection days 2 and 3 (reads of this peptide / all reads for the bait, averaged over … |
